Measured values reported in the Human Domainome abundance scans (Beltran et al. 2025).

B1: E3 ubiquitin-protein ligase TRIM36, residues 208 to 252; numbered along this chain, Q9NQ86 (parent)
chain: KILMCPEHETERINMYCELCRRPVCHLCKLGGNHANHRVTTMSSA

Variants of: B1
Experiment: abundance fitness (aPCA) (normalised: wild type 0, dead -1); higher = more abundant; growth selection in yeast, the domain comes from the species named
Conditions: Homo sapiens

Abundance fitness of substitutions, site by site:
G31: Q -0.019 | N -0.058 | I -0.203 | H -0.08 | K -0.091 | L -0.259 | R -0.048 | S -0.007 | Y -0.176 | A -0.034 | D -0.109 | W -0.438 | F -0.218 | C -0.094 | T 0 | P -0.285 | E -0.111
G32: S -0.045 | I -0.276 | F -0.243 | K -0.129 | W -0.297 | R -0.138 | D -0.003 | P -0.015 | N -0.228 | L -0.144 | V -0.163 | A 0.028 | Q -0.036 | C -0.132 | H -0.267 | T -0.07 | E 0.089
L27: N 0.005 | G -0.141 | C -0.196 | M -0.092 | F -0.182 | W -0.223 | Q 0.019 | E -0.058 | T 0.095 | Y -0.222 | A 0.052 | S -0.003 | D -0.202 | P -0.355 | R 0.015 | I -0.041
N36: A 0.029 | K -0.023 | I -0.225 | F -0.017 | H -0.05 | C -0.017 | G -0.059 | D -0.005 | E 0.039
Y16: R -0.069 | W -0.04 | V -0.437 | T 0.284 | S -0.135
V24: S -0.446 | D -0.453 | W -0.351 | C -0.107 | Q -0.431 | A -0.153 | R -0.44 | N -0.49 | L -0.129 | E -0.293 | K -0.533 | M -0.133 | P -0.501
K29: T -0.009 | R -0.025 | W -0.12 | H -0.066 | F 0.001 | S 0.003 | Y -0.012 | D 0.126 | I -0.13 | P -0.043 | M -0.057 | A 0.012 | G -0.009 | C -0.07 | V 0.004 | N 0.072 | Q 0.019 | L 0.039 | E 0.048
A35: T -0.068 | H -0.149 | I 0.255 | Y -0.137 | E 0.009 | K -0.078 | L -0.091 | Q -0.05 | S -0.052 | D 0.085 | N -0.339 | R -0.129 | W -0.309 | P -0.182 | V -0.011
E18: T -0.147 | W -0.236 | L -0.196 | Y -0.416 | S -0.148 | G -0.123 | Q -0.08 | C -0.209 | M -0.178 | V -0.172 | N -0.151 | D 0.116 | A -0.145 | P -0.269 | R -0.385 | H -0.343 | K -0.172
P23: G 0.006 | N -0.032 | R -0.148 | C -0.2 | Y -0.069 | I -0.373 | M -0.189 | S -0.058 | H -0.113 | Q -0.1 | A -0.064 | V -0.081 | D 0.037 | T 0.019 | K -0.146 | E 0.037
C20: D -0.393 | I -1.01 | W -1.16 | G -0.595 | Q -0.504 | K -0.547 | M -0.534 | E -0.491 | F -1.37 | L -0.591 | P -0.819 | A -0.652 | H -0.665 | V -0.789 | R -0.561 | S -0.679
N33: E -0.003 | I -0.064 | T 0.044 | K 0.016 | P 0.092 | W -0.178 | D 0.007 | Q 0.073 | M -0.015 | L -0.028 | G 0.028 | Y -0.153 | R -0.066 | V 0.039 | S 0.036 | H -0.046 | F -0.125 | A 0.071
C28: W -0.91 | D 0.302 | E -0.275 | I -0.613 | M -0.723 | T -0.777 | S -0.445 | K -0.592 | F -1.14 | G -0.608 | Y -0.904 | N -0.546 | V -0.525 | H -0.763 | A -0.672 | P -0.579 | L -0.826 | R -0.637 | Q -0.399
C25: T -0.612 | L -0.81 | G -0.556 | P -0.723 | K -0.572 | D -0.553 | I -0.814 | A -0.603 | Y -0.805 | V -0.854 | S -0.665 | F -0.752 | E -0.48 | M -0.618 | H -0.603 | N -0.5 | W -1.1 | Q -0.532 | R -0.729
C17: G -0.733 | S -0.897 | H -0.656 | P -0.705 | V -0.813 | L -1.04 | Q -0.954 | Y -0.862 | R -0.909 | T -0.796 | A -1.01 | F -1.21 | E -0.763 | W -1.16
L30: F -0.206 | D 0.083 | V 0.026 | H -0.078 | R 0.045 | M -0.041 | K 0.101 | A 0.094 | G 0.073 | W -0.203 | Y -0.549 | C -0.023 | E 0.09 | T 0.096 | P 0.005 | S 0.075 | Q 0.067 | I -0.05 | N 0.042
H34: R -0.541 | K -0.485 | G -0.288 | N -0.46 | Y -0.562 | V -0.444 | F -0.614 | P -0.391 | T -0.338 | M -0.431 | E -0.272 | A -0.334 | S -0.318 | C 0.033 | I -0.738 | D -0.326 | W -0.733
H26: L -0.161 | K -0.384 | T -0.226 | Q 0.045 | M -0.237 | E -0.022 | S 0.004 | D 0.04 | R -0.05 | G 0.049 | V -0.016 | P 0.021 | Y 0.343 | C 0.01 | F -0.307 | N -0.215 | W -0.324
L19: F -0.287 | C 0.137 | M 0.004 | D 0.021 | K 0.052 | P 0.029 | W -0.088 | I 0.04 | E 0.117 | V 0.039 | G 0.068 | H 0.004 | S 0.069 | N 0.169 | Q 0.004 | R 0.076
R22: L -0.029 | Q 0.036 | E 0.034 | D -0.197 | H 0.013 | G -0.116 | S 0.047 | I -0.227 | A 0.01 | P -0.344 | T -0.09 | V -0.01 | Y -0.265 | N -0.291 | K 0.068 | F -0.113 | W -0.34 | C -0.118 | M -0.163
R21: D 0.067 | T -0.061 | C -0.083 | L -0.084 | E 0.171 | W -0.416 | Q -0.002 | V 0.01 | N -0.121 | G -0.116 | F -0.425 | K 0.108 | A 0.002 | S -0.002 | Y 0.027 | P -0.387
